# Results published in the supplement of paper PMC10724198.
# ± gives the standard deviation of the averaged measurements.
# Test system: Saccharomyces cerevisiae
# Experiment: protein stability index of tFT-peptide fusion (C-terminal peptide) (PSI (0-1 scale)); higher = more stable (slower turnover)
# Conditions: genetic background: wild type; temperature: 30 C
# Experimental: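 Multiplexed protein stability (MPS) profiling in S. cerevisiae. Random 12-aa peptides (tFT-X12 library) are fused to the C-terminus of a sfGFP-mCherry tandem fluorescent timer, after mCherry and a GGGS linker. Cells are FACS-sorted into 8 mCherry/sfGFP bins and deep-sequenced. The protein stability index (PSI) is the read-weighted bin average, scaled from 0 (unstable) to 1 (stable). Only peptides with >10 reads are reported; cells were grown at 30 °C in SC-His with glucose.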
# 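Note: PSI is a weighted mean of sequencing reads over stability bins, variants kept only with over 10 reads, mCherry proximal and sfGFP distal, peptide attached via GGGS linker.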
row,Sequence,protein stability index
1,CVLVVGGPAGGG,0.575 ± 0.063
2,CVMDKEYGYAIK,0.729 ± 0.0094
3,CVPFFSSSSPLI,0.812 ± 0.037
4,CVPLGCDWRGLI,0.6418 ± 0.0058
5,CVQGDGLSFYVL,0.737 ± 0.07
6,CVSALVADDLVS,0.674 ± 0.029
7,CVWSGHIWDLLF,0.764 ± 0.016
8,CYGVGTVGLRRG,0.712 ± 0.048
9,CYGYTESKNRLD,0.6524 ± 0.0046
10,CYKKRKKTNNYE,0.653 ± 0.02
11,CYLGSGFLFFLL,0.5209 ± 0.00091
12,CYRLFPLSSFIP,0.689 ± 0.085
13,DAKPNMATGLSI,0.703 ± 0.027
14,DAWPPVRTVVIN,0.656 ± 0.071
15,DCAVNYVGRRRR,0.702 ± 0.057
16,DDGQWVGFCGWT,0.749 ± 0.039
17,DDQLACSHDIDS,0.643 ± 0.019
18,DDQYVGRYYNKT,0.676 ± 0.019
19,DEANFHGCYYGV,0.647 ± 0.041
20,DESRVYLSIALL,0.623 ± 0.035
21,DFLSLPPISPLL,0.787 ± 0.15
22,DFYSLAWHFWFL,0.69 ± 0.073
23,DGCGFIGLSLLE,0.731 ± 0.079
24,DGCSWRSGLVWL,0.69506 ± 0.00062
25,DGELFPDEPFYL,0.801 ± 0.049

row,Sequence,protein stability index
1,DGGVGRALEHGE,0.652 ± 0.0083
2,DGLQNACVFMSG,0.6906 ± 0.0025
3,DGPALWPRSVVD,0.684 ± 0.1
4,DGQNPVAFGSHG,0.691 ± 0.057
5,DGVRCCTKWTCA,0.679 ± 0.013
6,DGWSEAGQGGKG,0.679 ± 0.034
7,DHKKNKIKKKKE,0.685 ± 0.097
8,DHLVLSGPPPPV,0.733 ± 0.056
9,DHRELPRSRIGT,0.673 ± 0.015
10,DICFTPGVVNAS,0.6587 ± 0.0038
11,DIEKRNKRGVCV,0.714 ± 0.058
12,DIKAISVKYTIQ,0.6127 ± 0.0056
13,DILACAPCRRGP,0.704 ± 0.022
14,DKGWRTRKVKDE,0.632 ± 0.03
15,DKPRKVLPNENS,0.6871 ± 0.0017
16,DKRRSMSGGNMD,0.68 ± 0.024
17,DKSYKTYSVKGQ,0.6707 ± 0.0018
18,DLARSLVQSLSG,0.675 ± 0.017
19,DLEDPAETPNIF,0.72 ± 0.033
20,DLGWGRWYVVVG,0.678 ± 0.0083
21,DLHFAVVFPISR,0.733 ± 0.013
22,DLKIKKNDKKKK,0.658 ± 0.0086
23,DLLPGAGRDSRL,0.775 ± 0.21
24,DLSRSPAPPAPL,0.6706 ± 0.0014
25,DLVQFATEILMI,0.612 ± 0.0064

row,Sequence,protein stability index
1,DLVSVVGRGIVL,0.675 ± 0.026
2,DLYVADNCPNSP,0.662 ± 0.1
3,DMAPNSQKGRAL,0.668 ± 0.028
4,DPAIHPNYKVAG,0.701 ± 0.053
5,DPHINARERTPL,0.814 ± 0.2
6,DPPHPPPSPLPA,0.699 ± 0.02
7,DPRVLPPPPRLP,0.637 ± 0.02
8,DPTPLKSLVTRP,0.64 ± 0.04
9,DPTVIKNQTWFG,0.722 ± 0.05
10,DQGMSDVYPDCW,0.662 ± 0.011
11,DQSYPTPPSRID,0.721 ± 0.01
12,DQTKMKKIAKVE,0.655 ± 0.044
13,DRASLAGPRSLP,0.692 ± 0.032
14,DRNKINYYKGGI,0.694 ± 0.031
15,DRPSTNPISNVG,0.699 ± 0.015
16,DRPYTEILEFRL,0.834 ± 0.14
17,DRTITPSSVISL,0.705 ± 0.047
18,DRVGGDWMERGG,0.719 ± 0.036
19,DRVLRGAIWVSV,0.571 ± 0.045
20,DSFAIFFDWPAC,0.695 ± 0.0092
21,DSFPAGVLVQSK,0.664 ± 0.017
22,DSGVGLARSARG,0.678 ± 0.018
23,DSHEEGVSVAPA,0.749 ± 0.034
24,DSSPGSHPPHRG,0.736 ± 0.053
25,DSSPSPYPRPPP,0.729 ± 0.054

row,Sequence,protein stability index
1,DSVGGVLGRGAR,0.633 ± 0.022
2,DSVYYVYRSTRV,0.679 ± 0.044
3,DSWMKRPNKGQE,0.698 ± 0.058
4,DSYELGICCSSS,0.6678 ± 0.0019
5,DTPIGMPLNVTR,0.691 ± 0.061
6,DVFCRPRCFRRG,0.686 ± 0.041
7,DVGGRGAGGGSA,0.672 ± 0.0076
8,DVHGETRGYGIQ,0.665 ± 0.019
9,DVLFFSALKAHR,0.6881 ± 0.003
10,DVLGCHRCLGFC,0.699 ± 0.021
11,DVNSNYNVGEQR,0.64 ± 0.012
12,DVRTLGTRVMGW,0.6769 ± 0.0057
13,DVVDGCGGRYGW,0.687 ± 0.029
14,DVVLFQLGSELV,0.712 ± 0.013
15,DVYMWVVPNFTD,0.729 ± 0.037
16,DWAGGKMESVYR,0.66 ± 0.011
17,DYHPPRRMKEAG,0.625 ± 0.028
18,DYHWPFIRTATE,0.774 ± 0.027
19,EAHGQQESRCEQ,0.7 ± 0.055
20,EATCSPCPTRVV,0.621 ± 0.012
21,EATIVGLSYRTL,0.617 ± 0.032
22,ECGLRAAKPVWI,0.702 ± 0.063
23,ECPLPPCPPLST,0.68 ± 0.0098
24,ECVRWFKNTDRL,0.721 ± 0.032
25,EDLVREKRKCEK,0.694 ± 0.043

row,Sequence,protein stability index
1,EEEAETRHSMVY,0.738 ± 0.041
2,EEEQGPSENEKT,0.9714 ± 0.0082
3,EEHWDCEYVAFH,0.719 ± 0.015
4,EEMMEWKKREEK,0.6596 ± 0.0009
5,EEREKKWKGKGK,0.718 ± 0.035
6,EETRLQEVNRIL,0.737 ± 0.033
7,EETTSNLGLKVN,0.5617 ± 0.0014
8,EFKLINLETQRC,0.706 ± 0.017
9,EFMRHAFTPLPT,0.733 ± 0.041
10,EFPPPPSSRSCA,0.712 ± 0.013
11,EFRWVASGDLLS,0.749 ± 0.017
12,EGDGQGWGGQGG,0.702 ± 0.03
13,EGDGQVWGGQGG,0.644 ± 0.0078
14,EGDKGGGEQKRQ,0.688 ± 0.031
15,EGDRLVKEVGEE,0.654 ± 0.12
16,EGEGAGRWCGRG,0.66 ± 0.051
17,EGEVGGRWCGRG,0.676 ± 0.046
18,EGGAGGGVWGLG,0.819 ± 0.11
19,EGGFGSVLGGRG,0.724 ± 0.058
20,EGGTGCLAMSVG,0.7 ± 0.012
21,EGIDFVDQRLLS,0.663 ± 0.005
22,EGLTYIPCQTDC,0.812 ± 0.028
23,EGRRAGRVGTQV,0.688 ± 0.024
24,EGSEAYQWETLG,0.681 ± 0.038
25,EGSLHLHLSLST,0.66 ± 0.029

row,Sequence,protein stability index
1,EGSVGRRGHCVR,0.6959 ± 0.0055
2,EGTPLTIQRIGE,0.666 ± 0.094
3,EGWRWEGGVWEG,0.676 ± 0.022
4,EGYGPSVRYRRS,0.639 ± 0.084
5,EIHKDSNTENIK,0.663 ± 0.0031
6,EIKKKKSQTKKT,0.67 ± 0.085
7,EITKVKDNEKIN,0.686 ± 0.12
8,EKGRGGIGSRGK,0.768 ± 0.064
9,EKKIDPTVKEGK,0.663 ± 0.0094
10,EKKNMRYKTVEI,0.668 ± 0.066
11,EKLKTKEEKKTR,0.759 ± 0.054
12,EKRKNKKYKNKM,0.698 ± 0.049
13,EKSGKDKRKNEI,0.723 ± 0.062
14,EKSRSLACQHST,0.6725 ± 0.0052
15,ELCWCSKDNCYP,0.6993 ± 0.0059
16,ELFHVGQLNSHE,0.738 ± 0.12
17,ELGTDGSQKRAA,0.7045 ± 0.0053
18,ELHPPIPYPSRP,0.6773 ± 0.0047
19,ELIDGKLLRHRQ,0.733 ± 0.061
20,ELKGHIPFTLSR,0.703 ± 0.04
21,ELLSCGCCMVQS,0.5622 ± 0.0025
22,ELNGLSLVRKKK,0.662 ± 0.021
23,ELRFRGITRTTV,0.725 ± 0.052
24,ELSCMDGPLLCP,0.683 ± 0.059
25,ELSPLSYRNRTA,0.6835 ± 0.001

row,Sequence,protein stability index
1,EMEHANDARRVS,0.67 ± 0.015
2,ENERRESLTMVR,0.786 ± 0.1
3,ENQGQKKKKKKR,0.733 ± 0.12
4,EPDISTRGPGWT,0.74 ± 0.026
5,EPEPALTSAPPA,0.715 ± 0.023
6,EPGREKRRIVQK,0.679 ± 0.042
7,EPIMVKKACTDG,0.645 ± 0.029
8,EQLRLQSIECGE,0.631 ± 0.0073
9,EQNKQPEKETYN,0.625 ± 0.076
10,EQSLRHKCRPSV,0.596 ± 0.014
11,EREGGWEVNKWR,0.757 ± 0.079
12,ERGKREMRKNLT,0.681 ± 0.018
13,ERGKRKASHRRR,0.683 ± 0.041
14,ERIIGNRCYVRK,0.666 ± 0.039
15,ERRKSKRKNENE,0.674 ± 0.0084
16,ERRQADRHRTTP,0.766 ± 0.05
17,ERSRKVSWRFIR,0.6746 ± 0.0033
18,ERYKHKKMKNNE,0.699 ± 0.097
19,ESAARGWSSGVG,0.726 ± 0.079
20,ESAVHRTRRIPY,0.7888 ± 0.0046
21,ESGRGGVGVGWG,0.709 ± 0.096
22,ESLMYGYWGFAR,0.727 ± 0.045
23,ESRRKRRVAGPN,0.7072 ± 0.0066
24,ESYGIVEEGVYS,0.652 ± 0.082
25,ETKRRQEQNIVR,0.721 ± 0.082

row,Sequence,protein stability index
1,ETKSDRHDRTGT,0.655 ± 0.015
2,ETVNGVGSRWGF,0.741 ± 0.1
3,EVALDRLKNRGG,0.671 ± 0.028
4,EVCPRGIAGGVV,0.678 ± 0.013
5,EVDHLPHQVFRY,0.6671 ± 0.0021
6,EVERKNKESGKI,0.717 ± 0.011
7,EVGMDLTTGPIS,0.619 ± 0.056
8,EVGQYVEWSCLL,0.671 ± 0.019
9,EVLFWRGVSRME,0.725 ± 0.16
10,EVRWIGLPMCTS,0.6524 ± 0.0023
11,EVVFVARSGSGV,0.654 ± 0.008
12,EVVRTWAVVEGG,0.646 ± 0.11
13,EWGDLDGRGEPR,0.74 ± 0.0075
14,EYGQTDENKMRM,0.687 ± 0.096
15,EYIWLSLGSVYI,0.624 ± 0.05
16,EYRKSVERLRVD,0.687 ± 0.053
17,EYTIKTENKYKI,0.747 ± 0.13
18,EYVKFGMEHILE,0.675 ± 0.024
19,FAFRGFLIGCGV,0.54 ± 0.011
20,FAGAEFCGPVGV,0.629 ± 0.0024
21,FAKLDRVGACRW,0.764 ± 0.013
